Reference: the supplement of paper PMC10567573
± gives the standard deviation.

Experiment: protein stability index of a GFP-peptide fusion (GPS, HEK-293T) (PSI 1-6); higher = more stable
[1] = treatment: DMSO, c terminus: a fixed tail appended
[2] = treatment: MLN4924 1 uM, 8 h, c terminus: a fixed tail appended
[3] = treatment: DMSO, c terminus: native
[4] = treatment: MLN4924 1 uM, 8 h, c terminus: native
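Note: 24-mer peptide tiles fused after GFP, lentivirally expressed, FACS-sorted into six equal bins by GFP/DsRed ratio, decoded by Illumina sequencing, PSI is the read-weighted mean bin number.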

Sequence	protein stability index [1]	protein stability index [2]	protein stability index [3]	protein stability index [4]
FCLLSCGILTFLAVLGRYVPGLLL [RETREG3]	2.36 ± 0.32	2.09 ± 0.23	–	–
FCNISLFEDLPLQEPQSPQKLNPG [PLAGL1]	3 ± 0.2	3.21 ± 0.25	–	–
FDEKIVPILKRKLPGSDVSGRLMG [FBXO28]	2.75 ± 0.48	3.48 ± 0.47	–	–
FDLNNLDPELKNLFDMCGISEAQL [WASL]	2.62 ± 0.55	2.83 ± 0.69	–	–
FDRTEWVQIRRLEAAGESLEEEIR [ZC2HC1C]	4.02 ± 0.08	4.55 ± 0.1	–	–
FDVDHGICIMDAENITTVSVIKDH [WDR88]	3.27 ± 0.2	3.25 ± 0.25	–	–
FEDEVKRLGWQQQAELQELEERLQ [MTUS2]	4.17 ± 0.4	4.28 ± 0.54	–	–
FGKDFRKGLLKKGACYGDDACFVA [PPTC7]	2.24 ± 0.31	2.53 ± 0.35	–	–
FGVAVVITNQVVAQVDGAAMFAAD [RAD51]	3.26 ± 0.59	2.96 ± 0.62	–	–
FIEIELDRQELTYQELLRVCCCEL [ANKRD40]	2.67 ± 0.61	2.67 ± 0.66	–	–
FKEQLQALIPYVLNPSKLMEKEIN [ATL3]	1.91 ± 0.28	2.22 ± 0.24	–	–
FKGNKYWAVQGQNVLHGYPKDIYS [MMP1]	2.3 ± 0.21	2.46 ± 0.2	–	–
FLTHFILMNDVIDTSGFPDLSDNR [FBXO33]	2.41 ± 0.47	2.27 ± 0.43	–	–
FLVLQSLLERQVEMTPEKFSVLME [FANCE]	2.13 ± 0.39	2.11 ± 0.3	–	–
FPAEERARVLDRRGCSRVEGGGTS [ANKRD9]	4.42 ± 0.2	4.53 ± 0.28	–	–
FPSLQVTAILIECGADVNVRDSDD [FEM1C]	2.44 ± 0.18	2.37 ± 0.39	–	–
FQHHAKPNCFRKDPDINMHPFFFA [FADS1]	2.2 ± 0.43	2.29 ± 0.19	–	–
FRKIKDHFCPFENQFHTEIQILA [C8orf76]	–	–	2.69 ± 1	3.26 ± 0.27
FSAPDPPRPRPVSLSLRLPHQPVT [SMTNL2]	3.77 ± 0.12	3.91 ± 0.27	–	–
FSASERLSLKRELSWYRGRRPRTA [HESX1]	2.7 ± 0.28	3.22 ± 0.32	–	–
FSFRYQQELEEEIKELYENFCKHN [ATL3]	2.57 ± 0.38	2.86 ± 0.44	–	–
FSQKSCLVAHQRYHTGKTPFVCPE [ZNF649]	2.58 ± 0.13	2.6 ± 0.23	–	–
FSQYGRIITSRILVDQVTGVSRGV [ELAVL3]	2.23 ± 0.26	2.33 ± 0.23	–	–

Sequence	protein stability index [1]	protein stability index [2]	protein stability index [3]	protein stability index [4]
FVEDQAVVETVFFLTSRTRALLRR [ZSWIM9]	2.21 ± 0.25	2.22 ± 0.14	–	–
FVFSTEERTQLRLESLEDTHIMKG [TRIB1]	2.85 ± 0.63	3.36 ± 0.41	–	–
FVGDLSPEITTEDIKAAFAPFGRI [TIA1]	3.11 ± 1	2.7 ± 0.18	–	–
FVVEYHGDLIEITDAKKREALYAQ [KMT5A]	2.65 ± 0.34	2.73 ± 0.41	–	–
FYRSTAPSEDIWKKFELVPSPPTS [MYCL]	2.67 ± 0.15	2.76 ± 0.32	–	–
FYSAYLVAEKVVVITKHNDDEQYA [HSP90AB1]	2.18 ± 0.23	2.11 ± 0.43	–	–
GAAEEARRLEQRWGFGLEELYGLA [ACBD3]	2.77 ± 0.37	2.99 ± 0.12	–	–
GAERLDALLADEERCLSCILAQQP [TRADD]	3.59 ± 0.25	3.83 ± 0.28	–	–
GAQVKELEEKCQQPASELLQDVRV [TRIM15]	5.4 ± 0.36	5.43 ± 0.12	–	–
GATPSYHWDLAELLPNQSHGNQSA [SLC22A15]	4.06 ± 0.19	4.22 ± 0.33	–	–
GAYIGEGRVEVLKNGEWGTVCDDK [LOXL2]	4.99 ± 0.36	–	–	–
GCQLDLRYADLEAVNRARRPLARP [RHOBTB1]	3.07 ± 0.12	3.16 ± 0.28	–	–
GCSQFRLAVLDWNQRAMDLYKALG [SAT2]	2.2 ± 0.39	2.02 ± 0.18	–	–
GDDFELLDQSELSQLDPASSRSH [RETREG3]	–	–	4.75 ± 0.29	4.85 ± 0.4
GEEAVTLVEDMQRELGRLRQQVTN [ZNF263]	4.1 ± 0.14	4.02 ± 0.29	–	–
GESFPAQVPSGEDQTALSLEECLR [NFE2L1]	5.08 ± 0.89	5.15 ± 0.076	–	–
GFEHYDLFFIDGSTPSDNIVRRFL [CDC14A]	2.12 ± 0.24	2.16 ± 0.25	–	–
GFSSIPDAFWWAVVTMTTVGYGDM [KCNA3]	3.06 ± 0.47	3.25 ± 0.27	–	–
GGAQASGTLIGVGQSVTAVGRIIA [MFSD9]	3.38 ± 0.34	3.42 ± 0.2	–	–
GGGGGGGGTSSNNSEEEEDDDDEE [ANKRD17]	5.68 ± 0.21	5.55 ± 0.34	–	–
GGGGVAAVVVLDQGSRHWQKLREE [DUSP5]	2.96 ± 0.26	2.65 ± 0.3	–	–
GGKNCKKPAEYGYVSLGRLGAAKG [CEBPB]	3.64 ± 0.27	3.52 ± 0.54	–	–
GIPGWGFSGWISALVVPKGNTAVS [SCAMP3]	2.78 ± 0.72	2.41 ± 0.52	–	–

Sequence	protein stability index [1]	protein stability index [2]	protein stability index [3]	protein stability index [4]
GIVVWNMDVERQETPEWLDSDSCQ [WDFY2]	3.3 ± 0.2	3.5 ± 0.32	–	–
GKETLTPSELRDLVTQQLPHLMPS [S100A14]	3.94 ± 0.65	3.99 ± 0.12	–	–
GKGDDSETDKNNCSNAKAVETDV [KCNA4]	–	–	5.13 ± 0.28	5.52 ± 0.38
GKQPVSLPARRLKLRGRKRRQRG [CPXM2]	–	–	–	3.59 ± 0.25
GLANSSRVRGRVGTIRPVRCPSSS [C22orf15]	4.12 ± 0.14	4.23 ± 0.21	–	–
GLEDAGLDPHFVPTELWPQEAVPL [TEX19]	4.44 ± 0.13	4.62 ± 0.12	–	–
GLGCKDLDLIFHVALPTEAEFQLV [TENT5C]	2.26 ± 0.21	2.28 ± 0.45	–	–
GLGLPMSRSQNTDMVQKSVSKTLP [CLINT1]	4.33 ± 0.23	4.44 ± 0.099	–	–
GLHYIAFRKVKQMHLNFMDEKDRI [DNAJC4]	2.54 ± 0.29	2.65 ± 0.35	–	–
GLIPTGSGRHPSHSTTPSGPGDEV [ARFIP2]	5.08 ± 0.17	5.04 ± 0.1	–	–
GLTDVSQIITVTVQTGLDQYQQVP [IQUB]	2.26 ± 0.085	2.47 ± 0.23	–	–
GMASFRFPETTFISVTAYQNPQIT [TBX6]	2.34 ± 0.62	2.29 ± 0.11	–	–
GMLSYCDRYSEGIKHVLQTFGPIP [CRYL1]	2.72 ± 0.5	2.196 ± 0.02	–	–
GNPSTNSRVTASSGITIPKPPKPP [SMARCE1]	4.67 ± 0.32	4.7 ± 0.13	–	–
GNTESELKKLAEENPDLQEAYIAK [GDAP1]	5.51 ± 0.26	5.5 ± 0.26	–	–
GPGEPDVRDGFSATFEKILESELL [PSD2]	3.91 ± 0.25	4.03 ± 0.34	–	–
GPLAETTEDFWRMLWEHNSTIVVM [PTPRD]	2.48 ± 0.42	2.4 ± 0.33	–	–
GQFYLDLYPREGKYNHAACFGLQP [NLN]	1.91 ± 0.16	2.09 ± 0.31	–	–
GQLEFRALLFIPRRAPFDLFENKK [HSP90AB1]	2.22 ± 0.22	–	–	–
GQMSTPETPQPSPPGGSGSEPYKL [HNF4A]	5.16 ± 0.21	5.17 ± 0.19	–	–
GRPPDPADWAVMDVVNYFRTVGFE [SAMD13]	2.57 ± 0.25	2.78 ± 0.3	–	–
GRRAATALLWLSCSIALLRALATS [GNAS]	2.26 ± 0.37	2.02 ± 0.24	–	–
GRRGWKKFYAVLKGTILYLQKDEY [PSD2]	3 ± 0.4	3.32 ± 0.37	–	–

Sequence	protein stability index [1]	protein stability index [2]	protein stability index [3]	protein stability index [4]
GRVVPESQCQMETKPLAIHPCGDK [ADAMTSL2]	4.53 ± 0.17	4.71 ± 0.46	–	–
GSCQLGGGRGVSTCSTRFVSGGSA [KRT13]	3.32 ± 0.47	3.87 ± 0.21	–	–
GSCSTVGGVGYGDSKDCILEPLSL [ZNF277]	3.59 ± 0.32	3.5 ± 0.24	–	–
GSGDSGDSSEEESHRVVLRPRGKE [LYSMD4]	5.55 ± 0.19	5.35 ± 0.12	–	–
GSPQQPGLSAPHSRQIPAPQGAVL [KISS1]	4.3 ± 0.15	4.61 ± 0.28	–	–
GSQLPKPRMLRESGHGDAHLQEYA [FATE1]	4.38 ± 0.25	4.5 ± 0.11	–	–
GTNAWEEIATKPHEKIGFPAARRC [KLHDC10]	3.96 ± 0.22	3.91 ± 0.37	–	–
GTPSPSRSRDSNSGPEEPLLEEEE [RTN2]	5.49 ± 0.24	5.72 ± 0.27	–	–
GVAVGDWVLSIDGENAGSLTHIEA [PDLIM7]	3.03 ± 0.5	2.96 ± 0.36	–	–
GVCGDRATGFHFNAMTCEGCKGFF [VDR]	2.28 ± 0.13	2.38 ± 0.19	–	–
GVFVGVISFGQLSDRFGRKKVYLT [SLC22A15]	2.82 ± 0.43	2.7 ± 0.39	–	–
GVIQSVSSWKHGSGTQYVSTRQTQ [C18orf25]	3.19 ± 0.11	3.52 ± 0.35	–	–
GVPPLKLCKNLNREAQQYSEALAS [GLIPR2]	3.89 ± 0.44	3.96 ± 0.14	–	–
GVPVQPVLIRYPNSLDTTSWAWRG [LPCAT4]	2.28 ± 0.26	2.34 ± 0.31	–	–
GVSFQAISSMADFWDFAQGPLLDS [PKD2L1]	2.4 ± 0.29	2.87 ± 0.32	–	–
GYNLRALAEGVSASLHTLLGDPCP [HDAC6]	2.6 ± 0.31	2.64 ± 0.2	–	–
GYSDRDGYGRDRDYSDHPSGGSYR [RBMX]	4.6 ± 0.31	4.81 ± 0.45	–	–
HCHKRRTRSCSSASSRSQQSSKRS [CLK3]	5.19 ± 0.26	5.06 ± 0.063	–	–
HCMAPPLLHLDLKPANILLDAHYH [RIPK4]	2.27 ± 0.23	2.38 ± 0.22	–	–
HCVTSDPATSPLVLAIPRRLRVEL [TRIM35]	2.3 ± 0.37	2.13 ± 0.44	–	–
